Where no end group is shown, it is not given here. The star is where a group is joined. Palmitoyl = CCCCCCCCCCCCCCCC(=O)*
B1: N-terminally palmitoylated MPER peptide (peptide)
peptide: Palmitoyl-DLLELDKWASLWNWFNITNWLWYIK

Key:
Experiment in all cases: SPR; liposome-bound MPER
203 = biological target: 203
484 = biological target: 484
274 = biological target: 274
275 = biological target: 275
[1] = biological target: B1

Row | Binder | Kd 203 | Kd 484 | Kd 274 | Kd 275 | Kd [1]
1 | B1 | 29 nM | 5.5 nM | 63 nM | 18 nM | 
2 | rmAb 460 IgG1 (antibody, V domains shown) VH: EVQLQQSGAELVKPGASVKLSCTASGFNIKDTYMHWVKQRPEQGLEWIGRIDPANGNTKYDPKFQGKATITADTSSNTAYLQLSSLTSEDTAVYFCTRSRGYFGNYYFDYWGQGTTLTVSS VL: QIVLTQSPAVMSASPGERVTMTCSASSSVSYMYWYQQKPRSSPKPWIYLTSNLASGVPARFSGSGSGTSYSLTISSMEAEDAATYYCQQWSSIPLTFGAGTKLELK |  |  |  |  | 14 nM
3 | rmAb 235 IgG1 (antibody, V domains shown) VH: QVQLQQSGTDLVRPGTSVKVSCKASGYAFTTYFIEWVKQRPGQGLEWIGVINPGSGIPNYNEMFKGKATLTADKSSSTAYLHLSSLTSDDSAVYFCARAPYYYGSSYYYFDVWGAGTTVTVSS VL: DIVMSQSPSSLAVSVGEKVTMSCKSSQSLLYSSNQKNYLAWYQQKPGQSPKLLIYWASTRDSGVPDRFTGSGSGTDFTLTISSVKAEDLAVYCCQQYYNYPFTFGAGTKLEIK |  |  |  |  | 11 nM

From publication PMC10632514 (2023)
